# Experimental data from patent US20040120946A1.
# Where no end group is shown, it is not given here.
# What was measured:
# [1] = biological target: antibody against M2 muscarinic receptor in DCM patient serum C (human); experiment: batch adsorption with DCM patient serum C, 37 C, 2 h; antibody left in supernatant read by ELISA on plate-coated M2R peptide
# [2] = biological target: antibody against β1-adrenoceptor in DCM patient serum D (human); experiment: batch adsorption with DCM patient serum D, 37 C, 2 h; antibody left in supernatant read by ELISA on plate-coated β1AR2nd peptide
# [3] = biological target: antibody against β1-adrenoceptor in DCM patient serum A (human); experiment: batch adsorption: 50 uL adsorbent with 300 uL DCM patient serum A, 37 C, 2 h; antibody left in supernatant read by ELISA on plate-coated β1AR2nd peptide
# [4] = biological target: antibody against β1-adrenoceptor in DCM patient serum B (human); experiment: batch adsorption with DCM patient serum B, 37 C, 2 h; antibody left in supernatant read by ELISA on plate-coated β1AR2nd peptide
binder,measurement,setting,value
VRTVEDGECYIQFFSNAAVTFGTAIPAKK (also: immobilized on Eupergit C 250 L) [peptide (SEQ ID NO:10) immobilized on Eupergit C 250 L (Eu-SEQ ID NO:10)],Adsorptive capacity,[1],60%
"peptides (SEQ ID NOS:11,12) co-immobilized on epoxy-activated Kac (Kac-SEQ ID NOS:11,12) (protein, cysteine pairing not given here; also: two separate peptides co-immobilized on epoxy-activated Kac) peptide 1: HWWRAESDEARRCYNDPKCCDFVTNRAC peptide 2: VRTVEDGECYIQFFSNAAVTFGTAIC",Adsorptive capacity,[2],80%
HWWRAESDEARRCYNDPKCCDFVTNR (cysteine pairing not given here; also: immobilized on CNBr-activated Sepharose 4B),Adsorptive capacity,[3],15%
HWWRAESDEARRCYNDPKCCDFVTNRGAC (cysteine pairing not given here; also: immobilized on epoxy-activated cellulose gel Kac) [peptide (SEQ ID NO:9) immobilized on epoxy-activated Kac (Kac-SEQ ID NO:9)],Adsorptive capacity,[4],70%
RAESDEARRCYNDPKCCDFVTNR [peptide (SEQ ID NO:4) immobilized on epoxy-activated GCL2000m (GCL2000m-SEQ ID NO:4)],Adsorptive capacity,[3],35%
